Reference: patent publication US8680241B2 (priority 2009, dated 2014)
“Also recorded” adds a separate entry of the source. Where two headings read alike, the source gives them in different places.

Experiments:
[1] = test system: Balb/C mice with TNBS colitis; assay type: in vivo, mouse; details: for TNBS-induced weight loss: Example 15, 8 mg/kg after sensitization and on day 1, day 3, PBS treated animals 15%, FIG. 24
Method: Balb/C mice were sensitized with 160 μL of the haptenizing agent TNBS (Sigma-Aldrich, St. Louis, Mo.) at a concentration of 2.5% in 50% ethanol by skin painting. A week later, 120 μl of 1% TNBS in 50% ethanol was administered intrarectally via a 3.5-French catheter. Mice were sacrificed 3 days after intrarectal TNBS administration. Animals were weighed at the time of sensitization, intrarectal administration and every day following such until sacrifice. Clinical assessment was carried out by evaluating weight loss and histopathology of the colon tissue post mortem.
Tissues were fixed in phosphate buffered saline containing 4% formalin and embedded in paraffin. Sections (5 μm) were stained with haematoxylin and eosin. The degree of inflammation was assessed by a blinded pathologist using the following scoring system from 0-4: 0, no signs of inflammation; 1, low level of leucocyte infiltration; 2, moderate level of leucocyte infiltration; 3, high level of leucocyte infiltration, high vascular density, thickening of bowel wall; 4, transmural infiltrations, loss of goblet cells, high vascular density, strong bowel wall thickening, edema.
Twenty Balb/C mice were sensitized via TNBS skin-painting (designated day −7), followed by intrarectal administration of TNBS a week later (designated day 0). The humanized VH2/VK3 antibody (200 μg) was administered at three time points (−6, −2, +1) via i.p. injection to treated animals which were compared with untreated control animals. All the animals were weighed at the time of sensitization, intrarectal administration and every day following such. The animals were sacrificed three days following intrarectal administration (designated +3) following significant weight loss (>5%) in the control group and the colon tissue was removed and sent for histopathological analysis.
Balb/C mice were sensitized via TNBS skin-painting (Day −7), followed by intrarectal administration of TNBS a week later (designated as day 0). The VH2/VK3 variant (8 mg/kg), Rituximab (8 mg/kg) or PBS, were administered following sensitization and on day 1 following intrarectal induction. The mice were weighed at the time of sensitization, intrarectal administration and every day following such. The animals were sacrificed 3 days following intrarectal administration (Day 3) following significant weight loss in the control groups.

[2] = test system: Lewis rats with adjuvant-induced arthritis; details: rat, in vivo
[3] = test system: DBA/1 mice with collagen-induced arthritis; assay type: in vivo, mouse; details: single dose i.p. 200 μg upon clinical signs; vs TBS; FIG. 20
Method: Nine week old male DBA/1 mice (Harlan Laboratories, Israel) were injected s.c. at the base of the tail with 200 μg collagen type II emulsified in CFA (Difco). Three weeks later mice were boosted s.c. with the same concentration of collagen II. The severity of arthritis was assessed daily by measuring feet diameter of hind and fore paws by caliper by a blinded observer. As controls, the inventors measured 4 mice of about the same age that were not injected with collagen. The mean of the healthy mice served as a “cut-off” measurement. Starting from day 5 after the boost injection, every mouse with a score value above the average of the healthy mice (in one paw or more) was assigned to one of the treatment groups.
The inventors next examined the in vivo effects of the humanized VH2/VK3 anti-peptide-6 antibody in an additional experimental model of arthritis, the Collagen-Induced Arthritis (CIA) model in mice. Male DBA/1 mice were immunized on day 0 with collagen type II emulsified in CFA to induce arthritis, and a boost dose given on day 21.85% of the mice developed CIA within 2.5 weeks after the boost injection. Upon clinical signs of disease, the mice were treated with a single dose of either the humanized VH2/VK3 anti-peptide-6 antibody (i.p. 200 μg) or tris buffered saline (TBS).

[4] = target: T1, adenylyl cyclase-associated protein 1 (CAP1) (Homo sapiens, UniProt Q01518); experiment: Western blot on over-expressed His-tagged CAP1; assay type: binding; details: control His CREB; FIG. 13
T1 construct: made in house; host or cells: E. coli BL21 (modified pET22b vector; cDNA from THP-1 cells)
T1 sequence (Q01518 whole entry): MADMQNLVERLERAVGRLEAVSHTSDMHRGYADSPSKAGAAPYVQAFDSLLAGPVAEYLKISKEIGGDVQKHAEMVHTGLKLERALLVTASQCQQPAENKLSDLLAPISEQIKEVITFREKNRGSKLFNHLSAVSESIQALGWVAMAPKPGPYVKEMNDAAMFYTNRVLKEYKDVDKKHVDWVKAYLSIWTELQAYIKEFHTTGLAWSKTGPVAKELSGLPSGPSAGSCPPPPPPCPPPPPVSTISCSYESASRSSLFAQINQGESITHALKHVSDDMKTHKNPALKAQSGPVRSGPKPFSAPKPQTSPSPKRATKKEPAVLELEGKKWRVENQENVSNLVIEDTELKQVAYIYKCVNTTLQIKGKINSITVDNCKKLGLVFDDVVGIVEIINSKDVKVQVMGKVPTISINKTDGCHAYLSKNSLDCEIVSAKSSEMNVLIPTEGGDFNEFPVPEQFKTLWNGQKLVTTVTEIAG

[5] = test system: human macrophages (CD14+ cells); assay type: cell-based; details: FITC conjugated, 10 μg; double stained with anti-CD14; FIGS. 12, 16
[6] = test system: human PBMC; assay type: cell-based
[7] = test system: Lewis rats with adjuvant-induced arthritis; assay type: in vivo, rat; details: IP 1 mg/kg days 11 and 15, serum day 19, FIG. 19
Method: Evaluation of cytokine levels in cell culture or in the serum of animals was carried out utilizing specific kits from R&D SYSTEMS, Minneapolis Minn. USA (according to the manufacturer's instructions).
The inventors furthermore evaluated the in vivo effects of the humanized anti-peptide-6 antibody on the induction of IL-10 secretion in the serum of animals having established arthritis. Lewis rats were immunized with MT/CFA on day 0. Rats were treated on days 11 and 15 with humanized VH2/VK3 (IP 1 mg/kg), or with PBS for comparison. Severity of arthritis was evaluated by clinical scoring, and animals were sacrificed on day 19 and serum levels of various cytokines were measured by ELISA (R&D systems). Serum of healthy untreated animals served as a control.

[8] = 11-day period, FIG. 25
[9] = test system: Balb/C mice; details: mouse, in vivo
[10] = test system: PBMC collected from rheumatoid arthritis (RA) patients; assay type: cell-based, human; details: 200 μg, 48 hours, two RA patients, vs without antibody; FIG. 21
Method: PBMC were collected from two RA patients and incubated for 48 hours with or without 200 μg of the humanized anti-peptide-6 antibody (VH2/VK3). Supernatants were then assayed for secreted IL-10 content.

## Rituximab
[1]
  TNBS-induced weight loss: 14%
[2]
  pathology findings of joints: marked fibrosis and formation of reactive periosteal bone
[2]; ip, 5 mg/kg
  severity of AA (arthritis score): no effect on AA

B1: VH2/VK3: humanized anti-peptide-6 IgG1; heavy chain variable region SEQ ID NO: 21, light chain variable region SEQ ID NO: 26 (antibody, V domains shown)
VH: QVTLKESGPALVKPTQTLTLTCSFSGFSLSTSNMGVGWIRQPAGKGLEWLLHILWNDSKYYNPALKSRLTISKDTYKNQVVLTMTNMDPVDTATYYCARMGGYYGNYGYYAMDYWGQGTLVTVSS
VL: QIVLTQSPATLSLSPGERATLSCTASSSVSSSYLHWYQQKPGKAPKLWIYSTSNLASGVPSRFSGSGSGTDYTLTISSLQPEDFATYYCHQYHRSPPTFGQGTKLEIK
modifications: IgG1 constant regions; VH2 amino acid sequence; VK3 amino acid sequence
[3]
  severity of established CIA (feet diameter): effective in significantly suppressing the severity of established CIA
[1]; Example 14, 200 μg i.p. at days -6, -2, +1, sacrifice day 3, p<0.05 vs control, FIG. 23
  inflammatory response in the colon (microscopic disease score, histology): Minimal inflammatory response
[1]; Example 14, 200 μg i.p. at days -6, -2, +1, vs untreated control, FIG. 22
  weight loss in TNBS colitis: effective in suppressing the weight loss
[1]
  TNBS-induced weight loss: 3.5%
[4]
  recognition of His-tagged CAP1 (Western blot): recognized the His-tagged CAP1 protein specifically
[5]
  binding to CD14 positive cells (FACS): binds to most of the CD14 positive cells
[2]; ip, 2.5 mg/kg
  severity of established AA (arthritis score): effective in significantly suppressing the severity of established AA
[6]
  IL-10 induction in PBMC cultures: best IL-10 induction; also recorded: induced higher IL-10 expression than the other variants
  IL-10 secreted from human PBMC: significant increase in IL-10 secreted
[7]; 1 rat per group
  serum IL-1 levels: remain negligible in all groups
  serum IL-17 levels: remain negligible in all groups
  serum TNFα levels: remain negligible in all groups
[7]
  serum IL-4 levels: remain negligible in all groups
[7]; vs PBS
  serum IFN-γ levels: reduction
  serum IL-6 levels: reduction
  serum IL-10 levels: clear induction of IL-10 levels
[8]; 500 μg i.p. on day 0
  serum half-life: approximately 10 days
[8]; 500 μg s.c. on day 0
  serum half-life: approximately 10 days
[9]
  pathological findings (heart, liver, lung, spleen, kidney): no significant pathological findings
[10]
  IL-10 secreted by RA patients' PBMC: robust increase in the amount of IL-10 secreted
